This note sets out measurements from patent publication US11407840B2, “Antibodies to M(H)DM2/4 and their use in diagnosing and treating cancer” (NomoCan Pharmaceuticals LLC, priority 2017, dated 2022).

The target in assay [1] is NMC-P2 peptide (SEQ ID NO:2), amino acids 15-25 of HDM2 (Homo sapiens, UniProt Q00987). Briefly: Peptide-ELISA, NMC-P2 peptide. The format is binding. The note with it: 5 μg/ml peptide dried on plate; OD 450 nm. As to the method: (§1) Peptide-ELISA Methodology: 5 μg/ml of NMC-P1, NMC-P2 or NMC-P3 peptide antigen was dried onto a 96-well ELISA plate overnight. Plates were then blocked with 5% BSA in 1× phosphate-buffered saline (PBS) (100 ? /well) for 2 hours at room temperature. Microplate wells were then washed 5 times with 300 ? of ice cold 1× PBS. Appropriate dilutions of monoclonal antibodies NMC-103, NMC-204 or NMC-303 in 1% bovine serum albumin (BSA) in PBS solution were then incubated with their corresponding peptides (NMC-P1, NMC-P2 or NMC-P3, respectively) at room temperature. After 2 hours, wells were washed 5 times with 300 ? ? ice-cold PBS/well and 100 ? secondary antibody (HRP-labeled Goat anti-Mouse F(ab′)2 H&L cross-adsorbed secondary antibody (HRP-GaM F(ab′)2), ThermoFisher, Cat. No. A24524) diluted 1:2500 to 1:5000 in PBS-1% BSA solution were added and the incubation continued at room temperature. After 1 hour, the wells were washed again 5 times with 200 ? of ice-cold PBS and 50 μiL of the TMB Substrate Solution (1-StepTM Ultra TMB-ELISA, ThermoFisher, Cat. No. 34028) were added to each well and color was allowed to develop for 30 minutes at room temperature. The reaction was stopped by addition of 50 μ ? ? of stop solution (ThermoFisher, Cat. No. SSO4) to each well and absorbance of each well was read immediately for optical density (OD) at 450 nm.
(In general: In an ELISA, binding on a coated surface is turned into a signal by an enzyme label.)

Assay [2] deals with mouse pancreatic cancer Panc-2 cells (subcutaneous tumors). Briefly: Panc-2 syngeneic mouse model of pancreatic cancer. It is filed as in vivo, mouse (C57BL/6). As to the method:
Methodology used (Syngeneic Mouse Models of lung, colon and pancreatic cancer): To investigate the anti-tumor effects of HDM2-specific antibodies on lung, colon and pancreatic tumors in vivo, three well-known syngeneic mouse models of lung, colon and pancreatic cancer were used (Sharma et al, 1999, J. Immunol. 163 (9):5020-5028; McIntyre, 2015, Bioassays 37(8):909-920; Li, et al, 2015, Sci. Rep. 5:7856). Subcutaneous tumors were prepared by implanting either mouse Lewis Lung cancer LL/2 cells (2.5×10^5 cells/mouse), mouse colon cancer MC-38 cells (5×10^5 cells/mouse) or mouse pancreatic cancer Panc-2 cells (2×10^6 cells/mouse) in the right flanks of 8-week-old female C57BL/6 mice (n=6-7). The mice were returned to their respective cages after tumor implantation. From day 7 after tumor implantation, the tumor volumes were measured 2 times/week with a digital caliper. In the case of MC-38 and Panc-2 study, treatment started when the tumors reached an average of 70-80 mm^3. In the case of LL/2 study, tumor cell inoculation and treatment were initiated simultaneously. Mice were micro-chipped and registered following tumor implantation. […] All tumors were injected subcutaneously and all treatments were performed by intraperitoneal injection. Any mouse displaying prolonged adverse clinical signs, or with body weight loss exceeding 15% relative to body weight at day 0, was euthanized.
The efficacy of FIDM2-specific antibody treatment and standard of care chemotherapy was further compared. […] As shown in the tumor volume graph of FIG. 19, when tumors in mice reached approximately 70 mm^3, mice were divided into 4 groups (n=6) that received: A) isotype control mouse IgG1 (2 mg/kg); B) low dose Gemcitabine (25 mg/kg) and nab-Paclitaxel (5 mg/kg); C) NMC-103 (2 mg/kg); or D) a combination of low dose Gemcitabine (25 mg/kg), nab-Paclitaxel (5 mg/kg) and NMC-103 (2 mg/kg). All drugs were injected intraperitoneally 2 times a week for 3 weeks. After receiving the 6th dose on day 19, treatments were stopped for 2 weeks.
The anti-tumor efficacy of NMC-103 and of its combination with pancreatic cancer standard of care treatment Gemcitabine (G) and nab-Paclitaxel (nP) was further evaluated in vivo utilizing the Panc-2 syngeneic mouse model of pancreatic cancer discussed above.
All drugs were injected intraperitoneally 2 times a week for 4 weeks.
The mice were then randomly divided in 2 groups that received a single dose of: A) isotype control mouse IgG1 (10 mg/kg) or B) NMC-103 (10 mg/kg).

Assay [3] has as its target NMC-P3 peptide (SEQ ID NO:3), amino acids 475-491 of HDM2 (Homo sapiens, UniProt Q00987). The experiment in a line: Peptide-ELISA, NMC-P3 peptide. It is filed as binding. The conditions noted are these: 5 μg/ml peptide dried on plate; OD 450 nm. How it is done: as §1

Entries after “also recorded” stand apart in the source; their conditions may differ.

B1: NMC-103: mouse monoclonal antibody, IgG1 isotype, binds NMC-P1 (SEQ ID NO:1); VH SEQ ID NO:36, VL SEQ ID NO:37 (antibody, V domains shown)
VH: EVQLQESGGGLVQPGGSLRLSCTTSGFTFTHYYMSWVRQPPGKALEWLGFIRNKAKGYTAEYSASVKGRFTISRDNSQSILYLQMNTLRPEDSATYYCARDIGDNWGQGTLVTVSS
VL: DIVMTQAAFSNPVTLGTSASISCRSSKNLLHSNGITYLYWYLQRPGQSPQLLISRVSNLASGVPNRFSGSESGTDFTLRISRVEAEDVGVYFCAQLLELPYTFGGGTKLEIK
modifications: mAb NMC-103 Heavy Chain Variable Region; mAb NMC-103 Light Chain Variable Region
Regarding B1, the “binding to NMC-P2 peptide (peptide-ELISA)” value in assay [1] was “did not bind”. Moreover, the “tumor size 6 days after a single i.p. injection” value in assay [2] (10 mg/kg single dose after 19 days of Gemcitabine 25 mg/kg + nab-Paclitaxel 5 mg/kg, from 438 mm^3, FIG. 30) stood at 233 mm^3. Further, in assay [2] (conditions of FIG. 27, FIG. 28), the “Kaplan Meier survival analysis versus chemotherapy alone or control antibody” value was “significant survival benefit”. Also, in assay [2] (day 34, NMC-103 10 mg/kg, Gemcitabine 25 mg/kg, nab-Paclitaxel 5 mg/kg i.p. 2 times a week for 4 weeks, surviving mice, NMC-103 group values ascribed to scars and inflammation, FIG. 27), the “average tumor size / measurement” value is recorded as 230 mm^3. Also, the average tumor volume in assay [2] (day 35, i.p. 2 times a week for 3 weeks (6th dose day 19), then 2 weeks off, antibody 2 mg/kg, Gemcitabine 25 mg/kg, nab-Paclitaxel 5 mg/kg, start approx 70 mm^3, n=6, FIG. 19) turned out to be 1523 mm^3. The “tumor growth during 4 further weeks without drug treatment (to day 62)” value in assay [2] (groups C (n=8) and D (n=7) of FIG. 27) is “no sign of tumor growth beyond the initial scar size”. In addition, the “tumor 10 days after re-challenge with Panc-2 cells” value in assay [2] (re-challenge at day 62, 2×10^6 cells/mouse s.c. left dorsal flank, previously treated mice of FIG. 27, FIG. 29) was “no tumor was observed”.

B2: NMC-204: mouse monoclonal antibody, IgG3 isotype, binds NMC-P2 (SEQ ID NO:2); VH SEQ ID NO:38, VL SEQ ID NO:39 (antibody, V domains shown)
VH: EVQLQESGSVLVRPGASVKLSCKASGDTLSGSWMHWAMQRPGQGLEWIGEIHLNRGTTNYNEKFKGKATVTVDTSSSTAYVDLSSLTSEDSAVYYCARSPGFAYWGQGTLVTVSA
VL: GIVMTQAAPSVPVTPGESVSISCRSSKSLLHSNGNSYLYWFLQRPGQSPQLLIYRMSNLASGVPDRFSGSGSGTAFTLRITRVEAEDVGVYYCMQHLEYPFTFGSGTKLEIK
modifications: mAb NMC-204 Heavy Chain Variable Region; mAb NMC-204 Light Chain Variable Region
Turning to B2, in assay [1], the “binding to NMC-P2 peptide (peptide-ELISA)” value is “bound; also recorded: strong binding”. Besides, the “binding to NMC-P3 peptide (peptide-ELISA)” value in assay [3] is on record as “did not bind”.
